Patent US20260098093A1 (HUMMINGBIRD BIOSCIENCE PTE, published 2026)

Legend:
[1] = molecular target: T1, recombinant human VISTA-Fc protein (R&D #7126-B7) (human, UniProt Q9H7M9 33-194); assay: competition ELISA: plate-bound human VISTA-Fc, competitor LRIG1.HIS at 1 µg/ml
T1 construct: Bought protein; also called Fc-tagged human VISTA; not shown: Fc part of a bought fusion protein
T1 sequence: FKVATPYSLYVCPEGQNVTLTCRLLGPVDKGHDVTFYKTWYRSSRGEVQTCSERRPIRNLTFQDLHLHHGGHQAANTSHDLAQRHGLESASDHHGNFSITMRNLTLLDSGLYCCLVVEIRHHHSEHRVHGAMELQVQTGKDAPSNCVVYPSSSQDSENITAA
Description: (§1) For inhibition assay, 384-well plates were coated with 5 μg/ml of human VISTA-Fc recombinant protein (R&D #7126-B7) diluted in PBS for 24 hrs at 4° C. […] Post incubation, plates were washed three times with TBST and incubated with anti-HIS HRP (Abcam #ab1187) antibody for 1 hr at room temperature followed by three further washes. Colorimetric reactions were developed using standard protocol as described for ELISA above.

[2] = molecular target: T1, recombinant human VISTA-Fc protein (R&D …); assay: competition ELISA: plate-bound human VISTA-Fc, competitor biotinylated VSIG3-Fc at 24 nM
Description: as §1, with “For the” for “For”, “2” for “5”, “streptavidin” for “anti-HIS”, “(R&D #DY998)” for “(Abcam #ab1187)”

[3] = molecular target: T2, HIS-tagged human VISTA (human, UniProt Q9H7M9 33-194); assay: BLI (Octet) epitope binning: human VISTA-HIS on anti-Penta-HIS sensor, antibody at 400 nM (concentration from paragraph 696)
T2 construct: Residues 33-194 are stated only for the protein used in HDXMS (Sino Biological #13482-H08H); also called human VISTA-HIS; not shown: HIS tag
T2 sequence: T1 sequence

[4] = molecular target: T1, recombinant human VISTA-Fc protein (R&D …); assay: ELISA, VSIG3-Fc on plate-bound human VISTA-Fc
[5] = molecular target: B7H1/PDL-1 (human, UniProt Q9NZQ7 19-239, limits assumed); assay: ELISA: plate coated with the named human antigen, 4M2-C12-mIgG2a titrated, absorbance 450 nm
[6] = molecular target: T3, B7H3 (human, UniProt Q5ZPR3 29-461, limits assumed); assay: as above
T3 construct: also called CD276
T3 sequence (looked up): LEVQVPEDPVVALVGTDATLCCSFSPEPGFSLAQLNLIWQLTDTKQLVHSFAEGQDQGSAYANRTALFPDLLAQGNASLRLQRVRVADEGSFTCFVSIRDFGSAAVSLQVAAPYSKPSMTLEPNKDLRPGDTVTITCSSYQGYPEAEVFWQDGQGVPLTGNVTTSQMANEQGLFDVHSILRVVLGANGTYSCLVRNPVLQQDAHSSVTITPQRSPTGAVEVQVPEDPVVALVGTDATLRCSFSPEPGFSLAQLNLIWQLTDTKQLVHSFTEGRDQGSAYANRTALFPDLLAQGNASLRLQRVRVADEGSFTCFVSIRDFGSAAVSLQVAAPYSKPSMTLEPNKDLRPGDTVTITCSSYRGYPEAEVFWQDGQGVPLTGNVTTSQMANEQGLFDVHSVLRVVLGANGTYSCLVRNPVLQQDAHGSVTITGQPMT

[7] = molecular target: T4, B7H4 (human, UniProt Q7Z7D3 29-258, limits assumed); assay: as above
T4 construct: also called VTCN1
T4 sequence (looked up): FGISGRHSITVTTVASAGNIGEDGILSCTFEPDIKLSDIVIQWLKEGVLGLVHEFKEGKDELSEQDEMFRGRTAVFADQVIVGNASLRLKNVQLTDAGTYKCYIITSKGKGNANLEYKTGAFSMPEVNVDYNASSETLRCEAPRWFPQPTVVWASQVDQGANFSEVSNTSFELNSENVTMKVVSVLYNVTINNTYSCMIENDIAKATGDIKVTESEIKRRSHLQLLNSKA

[8] = molecular target: T5, B7H6 (human, UniProt Q68D85 25-262, limits assumed); assay: as above
T5 construct: also called NCR3LG1
T5 sequence (looked up): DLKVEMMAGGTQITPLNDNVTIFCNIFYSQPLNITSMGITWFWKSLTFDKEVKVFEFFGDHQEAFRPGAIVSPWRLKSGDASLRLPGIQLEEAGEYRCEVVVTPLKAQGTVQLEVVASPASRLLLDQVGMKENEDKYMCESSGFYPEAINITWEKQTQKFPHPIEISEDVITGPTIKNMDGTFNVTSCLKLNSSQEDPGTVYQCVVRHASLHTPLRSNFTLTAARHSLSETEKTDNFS

[9] = molecular target: T6, B7H7 (human, UniProt Q9UM44 23-344, limits assumed); assay: as above
T6 construct: also called HHLA2
T6 sequence (looked up): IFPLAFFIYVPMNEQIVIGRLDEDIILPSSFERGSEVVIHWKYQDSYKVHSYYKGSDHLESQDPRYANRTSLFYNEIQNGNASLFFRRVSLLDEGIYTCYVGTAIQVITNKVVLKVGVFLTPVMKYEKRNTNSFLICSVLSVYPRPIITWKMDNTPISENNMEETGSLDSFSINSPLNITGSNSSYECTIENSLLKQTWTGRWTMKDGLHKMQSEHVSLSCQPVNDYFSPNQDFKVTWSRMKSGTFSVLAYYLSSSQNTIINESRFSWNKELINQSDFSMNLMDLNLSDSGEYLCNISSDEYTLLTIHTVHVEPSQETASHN

[10] = molecular target: PD-1 (human, UniProt Q15116 25-167, limits assumed); assay: as above
[11] = molecular target: T7, CTLA-4 (human, UniProt P16410 36-162, limits assumed); assay: as above
T7 sequence (looked up): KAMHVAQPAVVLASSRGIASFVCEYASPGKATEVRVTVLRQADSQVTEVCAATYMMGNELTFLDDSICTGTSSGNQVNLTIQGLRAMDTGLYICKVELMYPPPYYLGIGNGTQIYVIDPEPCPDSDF

[12] = molecular target: T2, HIS-tagged human VISTA; assay: ELISA: plate coated with the named human antigen, 4M2-C12-mIgG2a titrated, absorbance 450 nm; tag of the coated VISTA not stated

B1: V4-C26 hIgG4 (antibody)
heavy: not shown
light: EIVLTQSPATLSLSPGERATLSCRASSSVGYIHWYQQKPGQAPRPIIYTTSNRATGIPARFSGSGSGTDNTLTISSLEPEDSAVYYCQQWSSYPPITFGGGTKLEVKRTVAAPSVFIFPPSDEQLKSGTASVVCLLNNFYPREAKVQWKVDNALQSGNSQESVTEQDSKDSTYSLSSTLTLSKADYEKHKVYACEVTHQGLSSPVTKSFNRGEC
notes: Human IgG4 (S228P) / kappa; APC-conjugated in the flow cytometry assays; also called HMBD-002; V4-C26 hIgG4(S228P)
For B1, which IC50 [1] is on record?
Its IC50 is 3.4 nM.

And the IC50 [2]?
The IC50 was 0.673 nM.

B2: IGN175A (antibody, human IgG1, kappa, V domains shown)
VH: QVQLQQSGAELMKPGASVKISCKATGYTFSTHWIEWVKQRPGHGLEWIGEILPGSGSTSYNEKFKGKATFTADTSSNTAYMQLSSLTSEDSAVYYCARWLLYYYAMDYWGQGTSVTVSS
VL: DVLMTQTPLSLPVSLGDQASISCRSSQSIVHSNGNTYLEWYLQKPGQSPKLLIYKLSNRFSGVPDRFSGSGSGTDFTLKISRVEAEDLGVYYCFQGSHFPYTFGGGTKLEIKR
Does B2 bind [3]?
Result: binds

B3: recombinant human VSIG3-Fc (Fc fusion, UniProt Q5DX21 23-241, looked up)
chain: LEVSESPGSIQVARGQPAVLPCTFTTSAALINLNVIWMVTPLSNANQPEQVILYQGGQMFDGAPRFHGRVGFTGTMPATNVSIFINNTQLSDTGTYQCLVNNLPDIGGRNIGVTGLTVLVPPSAPHCQIQGSQDIGSDVILLCSSEEGIPRPTYLWEKLDNTLKLPPTATQDQVQGTVTIRNISALSSGLYQCVASNAIGTSTCLLDLQVISPQPRNIG
modifications: biotinylated in the inhibition ELISA (sites not given)
notes: Bought protein; also called VSIG3-Fc (R&D #9229-VS); not shown: Fc part of a bought fusion protein
How did the EC50 [4] turn out when B3 was run?
Its EC50 is 24 nM.

B4: 4M2-C12-mIgG2a (antibody, V domains shown)
VH: EVKLVESGPGLVKPSQSLSLTCTVTGYSITSDYAWNWIRQFPGNKLEWMGYITYSGNISYNPSLRSRISITRDTSKNQFFLQLNSVTPEDTATYSCARSLYYPWYFDVWGAGTTVTVSS
VL: DIVITQTPAILSTSPGEKVTMTCRASSSVGYIHWYQQKPGSSPKPWIYATSNLASGVPARFSGSGSGTSNSLTITRVEAEDAATYYCQQWSSYPPITFGGGTKLEVKR
notes: also called V4P mIgG2a
What does the source list for B4?
binding result [5]: no binding (tested: about 2e-8 M); binding result [6]: no binding (tested: about 2e-8 M); binding result [7]: no binding (tested: about 2e-8 M); binding result [8]: no binding (tested: about 2e-8 M); binding result [9]: no binding (tested: about 2e-8 M); binding result [10]: no binding (tested: about 2e-8 M); binding result [11]: no binding (tested: about 2e-8 M); EC50 (read off the curve) [12]: ~0.2 nM
